Test results as given in PMC12817079.

Key:
SOG1NAC (WT NAC domain) [1] = target: T1, SOG1NAC (WT NAC domain) (Arabidopsis thaliana, UniProt Q6NQK2 58-211); experiment: EMSA
T1 sequence: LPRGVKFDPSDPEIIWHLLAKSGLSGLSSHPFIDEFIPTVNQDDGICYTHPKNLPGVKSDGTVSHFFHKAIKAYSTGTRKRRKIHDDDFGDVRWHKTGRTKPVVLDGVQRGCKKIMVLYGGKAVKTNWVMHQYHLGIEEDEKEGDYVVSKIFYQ

SOG1NAC (WT NAC domain) [2] = target: T1, SOG1NAC (WT NAC domain); experiment: ITC
SOG1NAC-RKRR = target: T2, SOG1NAC-RKRR (Arabidopsis thaliana, UniProt Q6NQK2 58-211, R136A;K137A;R138A;R139A); experiment: EMSA
T2 sequence: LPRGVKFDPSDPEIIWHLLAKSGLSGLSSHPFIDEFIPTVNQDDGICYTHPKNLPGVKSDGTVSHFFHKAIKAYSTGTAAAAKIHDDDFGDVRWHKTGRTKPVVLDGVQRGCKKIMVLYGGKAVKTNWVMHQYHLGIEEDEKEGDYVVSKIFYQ

SOG1NAC-DNAstrand = target: T3, SOG1NAC-DNAstrand (Arabidopsis thaliana, UniProt Q6NQK2 58-211, R150S;H152S;T154A;R156S;T157S); experiment: EMSA
T3 sequence: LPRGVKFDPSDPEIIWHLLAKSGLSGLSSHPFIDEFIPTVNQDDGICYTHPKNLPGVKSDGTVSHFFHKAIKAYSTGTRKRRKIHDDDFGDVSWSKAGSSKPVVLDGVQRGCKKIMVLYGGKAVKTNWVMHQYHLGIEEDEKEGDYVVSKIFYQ

SOG1NAC (WT NAC domain) [3] = target: T1, SOG1NAC (WT NAC domain); experiment: EMSA; remark: listed apart in the source
SOG1NAC (WT NAC domain) [4] = target: T1, SOG1NAC (WT NAC domain); experiment: EMSA; remark: listed apart in the source
SOG1NAC (WT NAC domain) [5] = target: T1, SOG1NAC (WT NAC domain); experiment: EMSA; remark: listed apart in the source
SOG1NAC (WT NAC domain) [6] = target: T1, SOG1NAC (WT NAC domain); experiment: EMSA; remark: listed apart in the source
SOG1NAC (WT NAC domain) [7] = target: T1, SOG1NAC (WT NAC domain); experiment: EMSA; remark: listed apart in the source
SOG1NAC (WT NAC domain) [8] = target: T1, SOG1NAC (WT NAC domain); experiment: ITC; remark: listed apart in the source

B1: pSMR5 97 bp (dsDNA)
DNA 1: TACCTAGCAACTTCCAGAACAAGCTACGGTCACTTCCAAAACTAGTGTAATAAAGAAGCAATCTAATTAAGAACCTTATTAGGAAAGTGCGAGAGAG
DNA 2: CTCTCTCGCACTTTCCTAATAAGGTTCTTAATTAGATTGCTTCTTTATTACACTAGTTTTGGAAGTGACCGTAGCTTGTTCTGGAAGTTGCTAGGTA
binding result (SOG1NAC (WT NAC domain) [1]): binds

B2: pBRCA1 31 bp (dsDNA)
DNA 1: TCAAAGAGGCTTCCCTTGAAAGCTTTACAGA
DNA 2: TCTGTAAAGCTTTCAAGGGAAGCCTCTTTGA
Kd (SOG1NAC (WT NAC domain) [2]): 139 nM
binding result (SOG1NAC-RKRR): no binding
binding result (SOG1NAC-DNAstrand): no binding

B3: Designed oligo 2 (one pBRCA1 site) (dsDNA)
DNA 1: TCTGTAAAGCTTTCAAGGGAAGCCTCTTTGACGTAACAGAAACCCCGGAGTAAGCTCCCGTGGGGTCGGCGATGGTGGTAACTAATTATGTTCCT
DNA 2: AGGAACATAATTAGTTACCACCATCGCCGACCCCACGGGAGCTTACTCCGGGGTTTCTGTTACGTCAAAGAGGCTTCCCTTGAAAGCTTTACAGA
binding result (SOG1NAC (WT NAC domain) [3]): binds

B4: pSMR5 site 2 (RC) (dsDNA)
DNA 1: TTAGATTGCTTCTTTATTACACTAGTTTTGG
DNA 2: CCAAAACTAGTGTAATAAAGAAGCAATCTAA
binding result (SOG1NAC (WT NAC domain) [4]): binds

B5: pTKa1 31 bp (dsDNA)
DNA 1: TGACAAATCTTCTCCAGCAATTTTCTTCCTT
DNA 2: AAGGAAGAAAATTGCTGGAGAAGATTTGTCA
binding result (SOG1NAC (WT NAC domain) [5]): binds

B6: Designed oligo 1 (two pBRCA1 sites) (dsDNA)
DNA 1: TCTGTAAAGCTTTCAAGGGAAGCCTCTTTGACGTAACAGAAACCCCGGAGTAAGCTCCCGTGGGTCTGTAAAGCTTTCAAGGGAAGCCTCTTTGA
DNA 2: TCAAAGAGGCTTCCCTTGAAAGCTTTACAGACCCACGGGAGCTTACTCCGGGGTTTCTGTTACGTCAAAGAGGCTTCCCTTGAAAGCTTTACAGA
binding result (SOG1NAC (WT NAC domain) [6]): binds

B7: pSMR5 site 3 (dsDNA)
DNA 1: ATTAAGAACCTTATTAGGAAAGTGCGAGAGA
DNA 2: TCTCTCGCACTTTCCTAATAAGGTTCTTAAT
binding result (SOG1NAC (WT NAC domain) [7]): no binding

B8: pBRCA1 49 bp (dsDNA)
DNA 1: GCGTGTCCTTCAAAGAGGCTTCCCTTGAAAGCTTTACAGACTAAATAAA
DNA 2: TTTATTTAGTCTGTAAAGCTTTCAAGGGAAGCCTCTTTGAAGGACACGC
binding result (SOG1NAC (WT NAC domain) [4]): binds

B9: non-target 31 bp (random) (dsDNA)
DNA 1: GTCGGCGATGGTGGTAACTAATTATGTTCCT
DNA 2: AGGAACATAATTAGTTACCACCATCGCCGAC
binding result (SOG1NAC (WT NAC domain) [8]): no binding

B10: pSMR5 site 1 (RC) (dsDNA)
DNA 1: TGACCGTAGCTTGTTCTGGAAGTTGCTAGGT
DNA 2: ACCTAGCAACTTCCAGAACAAGCTACGGTCA
binding result (SOG1NAC (WT NAC domain) [4]): binds

B11: pXRI1 31 bp (dsDNA)
DNA 1: ATAAAAAGCTTCTCTTGCAATTCTCTCTTCC
DNA 2: GGAAGAGAGAATTGCAAGAGAAGCTTTTTAT
binding result (SOG1NAC (WT NAC domain) [5]): binds
